Measurements from patent US20250018014A1, “METHOD FOR TREATING AND/OR PREVENTING REGNASE-1-RELATED DISEASE” (OSAKA UNIVERSITY, priority 2018, published 2025).

Legend:
Test in all cases: cell-based or functional assay
[1] = molecular target: T1, C-terminal domain-deleted human Regnase-1 (amino acids 1 to 546) with N-terminal FLAG tag and C-terminal BirA … (human, UniProt Q5D1E8 1-546)
T1 sequence: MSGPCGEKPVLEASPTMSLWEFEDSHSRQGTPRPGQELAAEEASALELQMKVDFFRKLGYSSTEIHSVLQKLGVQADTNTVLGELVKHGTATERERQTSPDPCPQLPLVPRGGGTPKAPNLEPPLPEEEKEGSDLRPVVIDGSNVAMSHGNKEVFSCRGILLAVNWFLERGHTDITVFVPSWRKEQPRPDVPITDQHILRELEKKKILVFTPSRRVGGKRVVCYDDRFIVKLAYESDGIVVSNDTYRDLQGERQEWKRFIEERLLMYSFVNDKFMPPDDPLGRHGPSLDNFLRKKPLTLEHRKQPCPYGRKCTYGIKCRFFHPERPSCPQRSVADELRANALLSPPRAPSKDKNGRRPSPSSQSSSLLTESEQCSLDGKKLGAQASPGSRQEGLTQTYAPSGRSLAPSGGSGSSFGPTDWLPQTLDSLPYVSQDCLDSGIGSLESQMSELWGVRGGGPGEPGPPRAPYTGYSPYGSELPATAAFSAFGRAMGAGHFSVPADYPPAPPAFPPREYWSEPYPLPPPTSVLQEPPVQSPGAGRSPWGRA

[2] = molecular target: T2, full-length human Regnase-1 with a FLAG tag on the N-terminal side and a biotin ligase BirA recognition … (human, UniProt Q5D1E8 1-599, biotinylated at the BirA recognition sequence when required)
T2 sequence: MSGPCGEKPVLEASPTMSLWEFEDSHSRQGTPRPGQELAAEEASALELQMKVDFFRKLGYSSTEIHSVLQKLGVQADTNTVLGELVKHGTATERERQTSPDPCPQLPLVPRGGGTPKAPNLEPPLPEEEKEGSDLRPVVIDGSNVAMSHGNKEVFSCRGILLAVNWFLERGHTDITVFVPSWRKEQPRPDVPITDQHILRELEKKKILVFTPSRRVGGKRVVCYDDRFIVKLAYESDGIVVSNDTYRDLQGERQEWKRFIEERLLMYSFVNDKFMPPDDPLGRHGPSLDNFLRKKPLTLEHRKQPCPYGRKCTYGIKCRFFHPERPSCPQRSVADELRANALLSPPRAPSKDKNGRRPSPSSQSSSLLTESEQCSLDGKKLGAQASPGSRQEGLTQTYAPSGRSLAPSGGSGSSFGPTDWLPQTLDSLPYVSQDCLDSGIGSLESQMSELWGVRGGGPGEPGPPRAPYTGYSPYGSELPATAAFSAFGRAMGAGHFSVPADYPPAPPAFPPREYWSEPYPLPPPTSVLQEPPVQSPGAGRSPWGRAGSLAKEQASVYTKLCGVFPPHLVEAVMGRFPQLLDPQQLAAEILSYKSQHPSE

[3] = molecular target: T3, C-terminal human Regnase-1 (amino acids 301 to 599) with N-terminal FLAG tag and C-terminal BirA recognition … (human, UniProt Q5D1E8 301-599)
T3 sequence: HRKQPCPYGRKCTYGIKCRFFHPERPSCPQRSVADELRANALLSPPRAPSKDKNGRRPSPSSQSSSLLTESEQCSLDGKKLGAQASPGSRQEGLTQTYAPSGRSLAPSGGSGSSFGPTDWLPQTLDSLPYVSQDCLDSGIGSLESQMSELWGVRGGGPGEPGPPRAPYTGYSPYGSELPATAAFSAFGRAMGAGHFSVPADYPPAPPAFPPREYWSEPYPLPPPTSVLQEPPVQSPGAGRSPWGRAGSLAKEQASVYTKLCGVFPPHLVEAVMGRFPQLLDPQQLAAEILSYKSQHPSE

[4] = molecular target: T1, C-terminal domain-deleted human …; remark: listed apart in the source
[5] = molecular target: T2, full-length human Regnase-1 with a FLAG …; remark: listed apart in the source
[6] = molecular target: T3, C-terminal human Regnase-1 (amino acids …); remark: listed apart in the source

B1: PP11 (peptide)
peptide: XKFAQFRWIYPD
HELM: PEPTIDE1{[meA].K.F.A.Q.F.R.W.I.Y.P.D.[C1CCN([*:1])C1]}$PEPTIDE1,PEPTIDE1,1:R1-12:R3$$$V2.0
SMILES: CC[C@H](C)[C@@H]1NC(=O)[C@H](Cc2c[nH]c3ccccc23)NC(=O)[C@H](CCCNC(=N)N)NC(=O)[C@H](Cc2ccccc2)NC(=O)[C@H](CCC(N)=O)NC(=O)[C@H](C)NC(=O)[C@H](Cc2ccccc2)NC(=O)[C@H](CCCCN)NC(=O)[C@H](C)N(C)C(=O)C[C@@H](C(=O)N2CCCC2)NC(=O)[C@@H]2CCCN2C(=O)[C@H](Cc2ccc(O)cc2)NC1=O
For B1, the “50% inhibition concentration, Regnase-1 phosphorylation by IKKβ (AlphaScreen)” value [1] was over 62.1 µM, the “50% inhibition concentration, Regnase-1 phosphorylation by IKKβ (AlphaScreen)” value [2] was 22.3 µM and the “50% inhibition concentration, Regnase-1 phosphorylation by IKKβ (AlphaScreen)” value [3] was over 62.1 µM. For the same binder, the “50% inhibition concentration, Regnase-1 phosphorylation by TBK1 (AlphaScreen)” value [4] was 55.6 µM, the “50% inhibition concentration, Regnase-1 phosphorylation by TBK1 (AlphaScreen)” value [5] was 29.1 µM and the “50% inhibition concentration, Regnase-1 phosphorylation by TBK1 (AlphaScreen)” value [6] was over 62.1 µM.

B2: PP13 (peptide)
peptide: XRFRQWKWVYPD
HELM: PEPTIDE1{[meA].R.F.R.Q.W.K.W.V.Y.P.D.[C1CCN([*:1])C1]}$PEPTIDE1,PEPTIDE1,1:R1-12:R3$$$V2.0
SMILES: CC(C)[C@@H]1NC(=O)[C@H](Cc2c[nH]c3ccccc23)NC(=O)[C@H](CCCCN)NC(=O)[C@H](Cc2c[nH]c3ccccc23)NC(=O)[C@H](CCC(N)=O)NC(=O)[C@H](CCCNC(=N)N)NC(=O)[C@H](Cc2ccccc2)NC(=O)[C@H](CCCNC(=N)N)NC(=O)[C@H](C)N(C)C(=O)C[C@@H](C(=O)N2CCCC2)NC(=O)[C@@H]2CCCN2C(=O)[C@H](Cc2ccc(O)cc2)NC1=O
For B2, the “50% inhibition concentration, Regnase-1 phosphorylation by IKKβ (AlphaScreen)” value [1] was 43.2 µM, the “50% inhibition concentration, Regnase-1 phosphorylation by IKKβ (AlphaScreen)” value [2] was 3.6 µM and the “50% inhibition concentration, Regnase-1 phosphorylation by IKKβ (AlphaScreen)” value [3] was 23.2 µM. For the same binder, the “50% inhibition concentration, Regnase-1 phosphorylation by TBK1 (AlphaScreen)” value [4] was 17.7 µM, the “50% inhibition concentration, Regnase-1 phosphorylation by TBK1 (AlphaScreen)” value [5] was 8.4 µM and the “50% inhibition concentration, Regnase-1 phosphorylation by TBK1 (AlphaScreen)” value [6] was 18 µM.

B3: PP15 (peptide)
peptide: XNSWYINIWGHD
HELM: PEPTIDE1{[meA].N.S.W.Y.I.N.I.W.G.H.D.[C1CCN([*:1])C1]}$PEPTIDE1,PEPTIDE1,1:R1-12:R3$$$V2.0
SMILES: CC[C@H](C)[C@@H]1NC(=O)[C@H](CC(N)=O)NC(=O)[C@H]([C@@H](C)CC)NC(=O)[C@H](Cc2ccc(O)cc2)NC(=O)[C@H](Cc2c[nH]c3ccccc23)NC(=O)[C@H](CO)NC(=O)[C@H](CC(N)=O)NC(=O)[C@H](C)N(C)C(=O)C[C@@H](C(=O)N2CCCC2)NC(=O)[C@H](Cc2c[nH]cn2)NC(=O)CNC(=O)[C@H](Cc2c[nH]c3ccccc23)NC1=O
In the case of B3, the “50% inhibition concentration, Regnase-1 phosphorylation by IKKβ (AlphaScreen)” value [1] is reported as 31 µM, the “50% inhibition concentration, Regnase-1 phosphorylation by IKKβ (AlphaScreen)” value [2] is reported as 5.6 µM and the “50% inhibition concentration, Regnase-1 phosphorylation by IKKβ (AlphaScreen)” value [3] is reported as 22 µM. For the same binder, the “50% inhibition concentration, Regnase-1 phosphorylation by TBK1 (AlphaScreen)” value [4] was 9.5 µM, the “50% inhibition concentration, Regnase-1 phosphorylation by TBK1 (AlphaScreen)” value [5] was 8.5 µM and the “50% inhibition concentration, Regnase-1 phosphorylation by TBK1 (AlphaScreen)” value [6] was 17.4 µM.

B4: PP14 (peptide)
peptide: XRFGVWSWIYPD
HELM: PEPTIDE1{[meA].R.F.G.V.W.S.W.I.Y.P.D.[C1CCN([*:1])C1]}$PEPTIDE1,PEPTIDE1,1:R1-12:R3$$$V2.0
SMILES: CC[C@H](C)[C@@H]1NC(=O)[C@H](Cc2c[nH]c3ccccc23)NC(=O)[C@H](CO)NC(=O)[C@H](Cc2c[nH]c3ccccc23)NC(=O)[C@H](C(C)C)NC(=O)CNC(=O)[C@H](Cc2ccccc2)NC(=O)[C@H](CCCNC(=N)N)NC(=O)[C@H](C)N(C)C(=O)C[C@@H](C(=O)N2CCCC2)NC(=O)[C@@H]2CCCN2C(=O)[C@H](Cc2ccc(O)cc2)NC1=O
With B4 the “50% inhibition concentration, Regnase-1 phosphorylation by IKKβ (AlphaScreen)” value [1] was 9 µM, the “50% inhibition concentration, Regnase-1 phosphorylation by IKKβ (AlphaScreen)” value [2] was 1.6 µM and the “50% inhibition concentration, Regnase-1 phosphorylation by IKKβ (AlphaScreen)” value [3] was 6.5 µM. The “50% inhibition concentration, Regnase-1 phosphorylation by TBK1 (AlphaScreen)” value [4] was 5.2 µM, the “50% inhibition concentration, Regnase-1 phosphorylation by TBK1 (AlphaScreen)” value [5] was 3.1 µM and the “50% inhibition concentration, Regnase-1 phosphorylation by TBK1 (AlphaScreen)” value [6] was 6.8 µM.

B5: PP16 (peptide)
peptide: XNFSNSWYNIWD
HELM: PEPTIDE1{[meA].N.F.S.N.S.W.Y.N.I.W.D.[C1CCN([*:1])C1]}$PEPTIDE1,PEPTIDE1,1:R1-12:R3$$$V2.0
SMILES: CC[C@H](C)[C@@H]1NC(=O)[C@H](CC(N)=O)NC(=O)[C@H](Cc2ccc(O)cc2)NC(=O)[C@H](Cc2c[nH]c3ccccc23)NC(=O)[C@H](CO)NC(=O)[C@H](CC(N)=O)NC(=O)[C@H](CO)NC(=O)[C@H](Cc2ccccc2)NC(=O)[C@H](CC(N)=O)NC(=O)[C@H](C)N(C)C(=O)C[C@@H](C(=O)N2CCCC2)NC(=O)[C@H](Cc2c[nH]c3ccccc23)NC1=O
B5 was tested, and the “50% inhibition concentration, Regnase-1 phosphorylation by IKKβ (AlphaScreen)” value [1] was 30.8 µM, the “50% inhibition concentration, Regnase-1 phosphorylation by IKKβ (AlphaScreen)” value [2] was 20.6 µM and the “50% inhibition concentration, Regnase-1 phosphorylation by IKKβ (AlphaScreen)” value [3] was 42.2 µM. For the same binder, the “50% inhibition concentration, Regnase-1 phosphorylation by TBK1 (AlphaScreen)” value [4] was 38.1 µM, the “50% inhibition concentration, Regnase-1 phosphorylation by TBK1 (AlphaScreen)” value [5] was 52.4 µM and the “50% inhibition concentration, Regnase-1 phosphorylation by TBK1 (AlphaScreen)” value [6] was over 62.1 µM.

B6: PP12 (peptide)
peptide: XRYAVYQWIYPD
HELM: PEPTIDE1{[meA].R.Y.A.V.Y.Q.W.I.Y.P.D.[C1CCN([*:1])C1]}$PEPTIDE1,PEPTIDE1,1:R1-12:R3$$$V2.0
SMILES: CC[C@H](C)[C@@H]1NC(=O)[C@H](Cc2c[nH]c3ccccc23)NC(=O)[C@H](CCC(N)=O)NC(=O)[C@H](Cc2ccc(O)cc2)NC(=O)[C@H](C(C)C)NC(=O)[C@H](C)NC(=O)[C@H](Cc2ccc(O)cc2)NC(=O)[C@H](CCCNC(=N)N)NC(=O)[C@H](C)N(C)C(=O)C[C@@H](C(=O)N2CCCC2)NC(=O)[C@@H]2CCCN2C(=O)[C@H](Cc2ccc(O)cc2)NC1=O
In the case of B6, the “50% inhibition concentration, Regnase-1 phosphorylation by IKKβ (AlphaScreen)” value [1] is reported as 27 µM, the “50% inhibition concentration, Regnase-1 phosphorylation by IKKβ (AlphaScreen)” value [2] is reported as 6.8 µM and the “50% inhibition concentration, Regnase-1 phosphorylation by IKKβ (AlphaScreen)” value [3] is reported as 20.7 µM. For the same binder, the “50% inhibition concentration, Regnase-1 phosphorylation by TBK1 (AlphaScreen)” value [4] was 22.5 µM, the “50% inhibition concentration, Regnase-1 phosphorylation by TBK1 (AlphaScreen)” value [5] was 12.7 µM and the “50% inhibition concentration, Regnase-1 phosphorylation by TBK1 (AlphaScreen)” value [6] was 19.6 µM.
